Article PMC9265717

Molecular target: toll-like receptor 5 (TLR5) (human (endogenous in MDA-MB-468 and MDA-MB-231)) (UniProt O60602)
Sequence of UniProt O60602 (O60602 21-858): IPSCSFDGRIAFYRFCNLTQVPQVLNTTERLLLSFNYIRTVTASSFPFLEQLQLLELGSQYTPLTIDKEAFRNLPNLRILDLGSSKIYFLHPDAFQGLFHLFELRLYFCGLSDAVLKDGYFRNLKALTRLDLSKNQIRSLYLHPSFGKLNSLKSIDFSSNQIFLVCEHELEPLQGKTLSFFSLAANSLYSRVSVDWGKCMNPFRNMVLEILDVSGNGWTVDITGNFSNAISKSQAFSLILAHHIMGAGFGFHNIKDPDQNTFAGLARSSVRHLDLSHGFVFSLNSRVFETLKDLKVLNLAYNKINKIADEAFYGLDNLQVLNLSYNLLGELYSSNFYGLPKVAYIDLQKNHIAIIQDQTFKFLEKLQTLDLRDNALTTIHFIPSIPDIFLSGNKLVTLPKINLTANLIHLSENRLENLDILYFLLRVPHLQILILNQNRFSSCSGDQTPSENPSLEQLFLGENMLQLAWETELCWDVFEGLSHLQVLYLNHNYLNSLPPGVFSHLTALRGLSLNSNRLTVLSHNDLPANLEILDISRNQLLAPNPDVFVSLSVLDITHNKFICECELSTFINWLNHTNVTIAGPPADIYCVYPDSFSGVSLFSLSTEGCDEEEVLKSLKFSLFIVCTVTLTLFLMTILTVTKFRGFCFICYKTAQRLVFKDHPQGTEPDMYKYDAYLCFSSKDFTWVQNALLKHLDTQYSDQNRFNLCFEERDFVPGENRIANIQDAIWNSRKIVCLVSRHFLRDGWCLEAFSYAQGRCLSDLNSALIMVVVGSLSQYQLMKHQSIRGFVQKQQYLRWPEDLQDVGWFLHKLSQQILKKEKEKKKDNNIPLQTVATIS

- percent of IL-8 release (ELISA) by MDA-MB-231 cells in response to FnEDA (5 µM) that is inhibited by a blocking antibody to TLR5: 30%
Substance: fibronectin EDA (FnEDA) domain (domain or fragment)
